Data on three substances can be found in US20120135923A1, “Use of Melanocortins to Treat Dyslipidemia” (IPSEN PHARMA, S.A.S., priority 2009, published 2012).

In assay [1] the target is hMC1-R (human) (UniProt Q01726). In words: ratio Ki hMC1-R / Ki hMC4-R, same assay.
The target in assay [2] is hMC5-R (human) (UniProt P33032). In words: competition with [125I]-NDP-α-MSH, CHO-K1 membranes.
Assay [3] deals with hMC1-R (human) (UniProt Q01726). The description is as above.
Assay [4] addresses hMC3-R (human) (UniProt P41968). The assay is described as above.
The target of assay [5] is hMC4-R (human) (UniProt P32245). Described as above.
Sequence of hMC4-R (human) (P32245 whole entry): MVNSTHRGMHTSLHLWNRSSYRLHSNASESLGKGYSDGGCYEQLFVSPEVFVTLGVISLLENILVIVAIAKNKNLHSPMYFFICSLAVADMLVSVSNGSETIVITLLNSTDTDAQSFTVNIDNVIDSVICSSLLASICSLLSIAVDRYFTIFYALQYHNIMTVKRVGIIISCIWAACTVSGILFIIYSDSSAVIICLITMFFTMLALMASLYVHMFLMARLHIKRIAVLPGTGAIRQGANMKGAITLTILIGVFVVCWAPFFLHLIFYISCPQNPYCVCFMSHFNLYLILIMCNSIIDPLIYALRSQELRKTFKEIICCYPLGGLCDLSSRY

Sequence of hMC1-R (human) (Q01726 whole entry): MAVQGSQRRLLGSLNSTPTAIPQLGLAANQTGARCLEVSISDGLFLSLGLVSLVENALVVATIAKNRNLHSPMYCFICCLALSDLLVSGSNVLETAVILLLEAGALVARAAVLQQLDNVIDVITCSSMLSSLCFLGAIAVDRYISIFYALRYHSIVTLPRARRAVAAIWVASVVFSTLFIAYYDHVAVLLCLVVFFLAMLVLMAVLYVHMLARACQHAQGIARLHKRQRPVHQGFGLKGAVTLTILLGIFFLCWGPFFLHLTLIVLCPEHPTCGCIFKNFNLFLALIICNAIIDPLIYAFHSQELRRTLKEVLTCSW
Sequence of hMC3-R (human) (P41968 whole entry): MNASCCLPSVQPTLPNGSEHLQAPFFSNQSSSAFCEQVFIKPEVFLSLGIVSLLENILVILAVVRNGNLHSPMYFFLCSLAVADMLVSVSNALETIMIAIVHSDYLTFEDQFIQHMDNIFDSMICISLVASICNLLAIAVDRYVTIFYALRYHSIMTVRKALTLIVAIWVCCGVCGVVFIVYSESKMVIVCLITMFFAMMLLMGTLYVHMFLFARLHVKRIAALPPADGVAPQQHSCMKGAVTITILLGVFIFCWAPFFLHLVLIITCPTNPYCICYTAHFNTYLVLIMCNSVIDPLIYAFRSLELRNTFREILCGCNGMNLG
Sequence of hMC5-R (human) (P33032 whole entry): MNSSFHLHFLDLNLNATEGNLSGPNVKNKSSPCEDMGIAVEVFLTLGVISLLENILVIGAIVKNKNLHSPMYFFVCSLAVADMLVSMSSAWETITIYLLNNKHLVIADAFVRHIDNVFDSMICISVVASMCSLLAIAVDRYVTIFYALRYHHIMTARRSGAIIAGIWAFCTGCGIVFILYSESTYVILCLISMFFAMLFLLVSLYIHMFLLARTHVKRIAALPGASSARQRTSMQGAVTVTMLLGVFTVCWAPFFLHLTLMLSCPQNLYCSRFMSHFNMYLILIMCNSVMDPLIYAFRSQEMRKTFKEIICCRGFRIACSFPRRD

The term Ki denotes a measure of affinity in units of concentration, obtained from inhibition or displacement. Take “Ac-Nle-c(Cys-D-Ala-His-D-2-Nal-Arg-Bal-Cys)-NH2 (peptide)”: the Ki hMC1-R/MC4-R in assay [1] came to 1.34. For the same substance, the Ki stood at 125 nM in assay [2], 22.2 nM in assay [3], 12.7 nM in assay [4] and 16.6 nM in assay [5].
For “Ac-Cha-c(Asp-His-D-2-Nal-Arg-Trp-Gaba-Lys)-NH2 (peptide)” the same measures were 0.2, 3.91 nM, 0.576 nM, 3.98 nM and 2.82 nM.
For “D-Phe-c(Cys-His-D-(Et)Tyr-hArg-Trp-β-Ala-D-Cys)-Thr-NH2 (peptide)”, in that order: 0, 9.27 nM, 0.0567 nM, 31.4 nM and 14.7 nM.
